Here are results for three molecules from patent US20220251236A1 (Boehringer Ingelheim, published 2022).

For one assay, the target named is T1, Human DLL3-His (human, UniProt Q9NYJ7 27-492).
T1 construct: also called huDLL3-His; hu DLL3
T1 sequence: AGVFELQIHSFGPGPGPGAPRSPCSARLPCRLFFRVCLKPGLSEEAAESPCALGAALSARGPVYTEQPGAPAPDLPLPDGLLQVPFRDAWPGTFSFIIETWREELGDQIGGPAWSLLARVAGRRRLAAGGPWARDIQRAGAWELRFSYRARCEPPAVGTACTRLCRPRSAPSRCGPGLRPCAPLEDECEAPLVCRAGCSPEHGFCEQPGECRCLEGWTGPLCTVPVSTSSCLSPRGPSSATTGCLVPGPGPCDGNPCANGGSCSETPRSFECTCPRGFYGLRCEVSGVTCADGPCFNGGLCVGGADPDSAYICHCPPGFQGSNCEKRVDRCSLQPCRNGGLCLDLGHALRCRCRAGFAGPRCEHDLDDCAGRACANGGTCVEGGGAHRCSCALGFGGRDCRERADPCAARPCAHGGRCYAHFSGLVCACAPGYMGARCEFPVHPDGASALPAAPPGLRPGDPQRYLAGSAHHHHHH
Briefly: SPR (ProteOn XPR36), bispecific captured on protein A/G, DLL3 as analyte, Example 4A; Table 2A (Example 4A SPR run). Here is the method:
The binding affinity of purified DLL3/CD3 bispecific constructs for recombinant human and cyno DLL3-ECD and Fc-fusion proteins of human and cyno CD3 εγ subunits was determined by Surface Plasmon Resonance (SPR), using a ProteOn XPR36 instrument (Bio-Rad). The running buffer and all dilutions (except where stated) were done in PBS-T-EDTA. The GLM sensor chip (Bio-Rad) was normalized and pre-conditioned as per the manufacturer's recommendations. The sensor chip was activated with equal mixture of EDC/s-NHS in the horizontal direction for 300 sec at a flow rate of 30 ul/min and immobilized with protein A/G (20 ug/ml in 10 mM acetate pH 4.5) in the horizontal direction for 300 sec at a flowrate of 30 ul/min resulting in ˜5000 RU of protein A/G on the surface. The sensor chip was deactivated with 1M ethanolamine HCl in the horizontal direction for 300 sec at a flowrate of 30 μl/min.
For binding kinetic determination to DLL3, bispecific molecules were captured individually on the protein A/G surface vertically for 250 sec at a flowrate of 25 μl/min. The baseline was stabilized by injecting PBS-T-EDTA for 60 sec at a flowrate of 40 μl/min horizontally. The analyte (hu DLL3 or cy DLL3) was injected horizontally over the captured antibody for 600 sec at a flowrate of 40 μl/min and a dissociation for 2700 sec. […]

For a further assay, the target named is T2, EGF1+2.
T2 construct: also called Hu DLL3 EGF1+2 on HEK293 cells
T2 membrane-anchored DLL3 subdomain construct: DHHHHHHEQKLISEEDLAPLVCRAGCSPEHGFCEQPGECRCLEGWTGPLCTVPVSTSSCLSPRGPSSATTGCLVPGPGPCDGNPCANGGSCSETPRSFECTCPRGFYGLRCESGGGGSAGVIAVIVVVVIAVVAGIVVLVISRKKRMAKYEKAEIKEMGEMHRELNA
Put plainly: flow cytometry on HEK293 cells expressing the DLL3 subdomain construct, 1.6 nM binder, PE anti-human secondary, control: secondary antibody only. The method, boiled down:
(§1)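 Binders tested on HEK293 cells displaying the DLL3 subdomain construct; bound molecules detected by flow cytometry using PE-conjugated anti-human secondary antibody. Negative control: cells with secondary antibody only.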

A further assay concerns the target T3, EGF3+4.
T3 construct: also called Hu DLL3 EGF3+4 on HEK293 cells
T3 membrane-anchored DLL3 subdomain construct: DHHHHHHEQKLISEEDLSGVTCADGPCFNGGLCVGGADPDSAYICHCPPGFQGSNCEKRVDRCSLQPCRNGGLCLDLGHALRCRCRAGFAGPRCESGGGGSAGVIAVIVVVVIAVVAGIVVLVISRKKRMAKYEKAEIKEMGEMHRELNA
The assay is described as above. Summed up: as §1

A further assay concerns the target T4, EGF4+5.
T4 construct: also called Hu DLL3 EGF4+5 on HEK293 cells
T4 membrane-anchored DLL3 subdomain construct: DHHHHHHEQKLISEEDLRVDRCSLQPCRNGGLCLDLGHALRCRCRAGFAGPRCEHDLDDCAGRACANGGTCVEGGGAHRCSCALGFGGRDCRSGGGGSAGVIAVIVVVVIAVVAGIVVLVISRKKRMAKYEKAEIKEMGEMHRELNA
Described as above. Summed up:
as §1

Assay [1] concerns the target T5, human DLL3 (endogenous, on SCLC cell lines NCI-H82 and SHP77 and in SCLC tissue) (human, UniProt Q9NYJ7 27-618).
T5 construct: whole, on cells; also called SCLC cell lines expressing DLL3
T5 sequence (looked up): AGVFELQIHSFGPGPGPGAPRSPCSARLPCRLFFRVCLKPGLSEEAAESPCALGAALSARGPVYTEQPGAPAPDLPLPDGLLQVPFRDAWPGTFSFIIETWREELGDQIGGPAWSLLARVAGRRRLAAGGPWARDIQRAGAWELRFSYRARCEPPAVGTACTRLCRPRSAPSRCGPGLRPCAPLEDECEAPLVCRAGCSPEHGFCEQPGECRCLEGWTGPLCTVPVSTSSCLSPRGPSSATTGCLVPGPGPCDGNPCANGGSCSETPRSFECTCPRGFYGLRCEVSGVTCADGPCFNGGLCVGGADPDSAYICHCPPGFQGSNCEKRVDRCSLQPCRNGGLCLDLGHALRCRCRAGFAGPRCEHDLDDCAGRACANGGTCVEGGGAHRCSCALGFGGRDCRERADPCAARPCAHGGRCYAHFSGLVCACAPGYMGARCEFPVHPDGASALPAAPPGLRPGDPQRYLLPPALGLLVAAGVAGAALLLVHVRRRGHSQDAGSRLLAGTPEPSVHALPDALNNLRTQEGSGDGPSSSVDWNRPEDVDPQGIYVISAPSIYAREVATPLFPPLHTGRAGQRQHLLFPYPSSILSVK
Put plainly: flow cytometry titration on SHP77 cells, PE anti-human secondary, x-fold over background. From the text: Cells (T cells or human SCLC cells) were stained with increasing concentrations of two-step purified DLL3/CD3 binding proteins with increasing concentrations in FACS buffer (PBS/0.5% BSA/0.05% sodium azide). Bound molecules were detected with PE-conjugated anti-human secondary antibody (Sigma-Aldrich, #P8047).
(In general: Flow cytometry measures light scatter and fluorescence of single cells or particles in a stream.)

B1: DLL3#3/CD3#1 (bispecific antibody, human IgG1, kappa, lambda, L234A L235A)
chain 1: DIQMTQSPSAMSASVGDRVTITCRASQGISNYLVWFQQKPGKAPKRLIYAVSSLYSGVPSRFSGSGSGTEFTLTISSLQPEDFATYYCLQHDSYPYTFGQGTKLEIKRTVAAPSVFIFPPSDEQLKSGTASVVCLLNNFYPREAKVQWKVDNALQSGNSQESVTEQDSKDSTYSLSSTLTLSKADYEKHKVYACEVTHQGLSSPVTKSFNRGECGGGGSEGKSSGSGSESKSTEGKSSGSGSESKSTGGGGSQVQLVQSGAEVKKPGASVKVSCKASGYTFTSYYVHWVRQAPGQGLEWMVIINPGGGTTSYAQKFLGRVTMTRDTSTNTVYMELKSLRSEDTAVYYCARGEAVTGNYFYYGMDVWGQGTTVTVSSASTKGPSVFPLAPSSKSTSGGTAALGCLVKDYFPEPVTVSWNSGALTSGVHTFPAVLQSSGLYSLSSVVTVPSSSLGTQTYICNVNHKPSNTKVDKRVEPKSCDKTHTCPPCPAPEAAGGPSVFLFPPKPKDTLMISRTPEVTCVVVDVSHEDPEVKFNWYVDGVEVHNAKTKPREEQYNSTYRVVSVLTVLHQDWLNGKEYKCKVSNKALPAPIEKTISKAKGQPREPQVYTLPPSREEMTKNQVSLWCLVKGFYPSDIAVEWESNGQPENNYKTTPPVLDSDGSFFLYSKLTVDKSRWQQGNVFSCSVMHEALHNHYTQKSLSLSPG
chain 2: EAVVTQEPSLTVSPGGTVTLTCRSSTGAVTTSNYANWVQEKPGQLPRGLIGGTNKRAPWVPARFSGSLLGGKAALTLSGAQPEDEAEYFCALWYSNLWVFGGGTKLTVLGQPKAAPSVTLFPPSSEELQANKATLVCLISDFYPGAVKVAWKADGSPVNTGVETTTPSKQSNNKYAASSYLSLTPEQWKSHRSYSCQVTHEGSTVEKTVAPAECSGGGGSEGKSSGSGSESKSTEGKSSGSGSESKSTGGGGSEVQLVESGGGLVQPGGSLKLSCAASGFTFNTYAMNWVRQAPGKGLEWVARIRSKYNNYATYYADSVKDRFTISRDDSKNTAYLQMNNLKTEDTAVYYCVRHGNFGNSYVSWFAYWGQGTLVTVSAASTKGPSVFPLAPSSKSTSGGTAALGCLVKDYFPEPVTVSWNSGALTSGVHTFPAVLQSSGLYSLSSVVTVPSSSLGTQTYICNVNHKPSNTKVDKRVEPKSCDKTHTCPPCPAPEAAGGPSVFLFPPKPKDTLMISRTPEVTCVVVDVSHEDPEVKFNWYVDGVEVHNAKTKPREEQYNSTYRVVSVLTVLHQDWLNGKEYKCKVSNKALPAPIEKTISKAKGQPREPQVYTLPPSREEMTKNQVSLSCAVKGFYPSDIAVEWESNGQPENNYKTTPPVLDSDGSFFLVSKLTVDKSRWQQGNVFSCSVMHEALHNRFTQKSLSLSPG
notes: Heterodimer of one DLL3 chain and one CD3 chain (scFab-Fc, knob-in-hole)
In general, Kd refers to the concentration at which binding is half-saturated. B1: in the assay with Human DLL3-His, the Kd was less than 0.01 nM.

B2: DLL3#5/CD3#1 (bispecific antibody, human IgG1, kappa, lambda, L234A L235A)
chain 1: not shown
chain 2: EAVVTQEPSLTVSPGGTVTLTCRSSTGAVTTSNYANWVQEKPGQLPRGLIGGTNKRAPWVPARFSGSLLGGKAALTLSGAQPEDEAEYFCALWYSNLWVFGGGTKLTVLGQPKAAPSVTLFPPSSEELQANKATLVCLISDFYPGAVKVAWKADGSPVNTGVETTTPSKQSNNKYAASSYLSLTPEQWKSHRSYSCQVTHEGSTVEKTVAPAECSGGGGSEGKSSGSGSESKSTEGKSSGSGSESKSTGGGGSEVQLVESGGGLVQPGGSLKLSCAASGFTFNTYAMNWVRQAPGKGLEWVARIRSKYNNYATYYADSVKDRFTISRDDSKNTAYLQMNNLKTEDTAVYYCVRHGNFGNSYVSWFAYWGQGTLVTVSAASTKGPSVFPLAPSSKSTSGGTAALGCLVKDYFPEPVTVSWNSGALTSGVHTFPAVLQSSGLYSLSSVVTVPSSSLGTQTYICNVNHKPSNTKVDKRVEPKSCDKTHTCPPCPAPEAAGGPSVFLFPPKPKDTLMISRTPEVTCVVVDVSHEDPEVKFNWYVDGVEVHNAKTKPREEQYNSTYRVVSVLTVLHQDWLNGKEYKCKVSNKALPAPIEKTISKAKGQPREPQVYTLPPSREEMTKNQVSLSCAVKGFYPSDIAVEWESNGQPENNYKTTPPVLDSDGSFFLVSKLTVDKSRWQQGNVFSCSVMHEALHNRFTQKSLSLSPG
notes: as for B1
As to B2, the binding result in the assay with EGF1+2 was “binds”.

B3: DLL3#4/CD3#1 (bispecific antibody, human IgG1, kappa, lambda, L234A L235A)
chain 1: not shown
chain 2: EAVVTQEPSLTVSPGGTVTLTCRSSTGAVTTSNYANWVQEKPGQLPRGLIGGTNKRAPWVPARFSGSLLGGKAALTLSGAQPEDEAEYFCALWYSNLWVFGGGTKLTVLGQPKAAPSVTLFPPSSEELQANKATLVCLISDFYPGAVKVAWKADGSPVNTGVETTTPSKQSNNKYAASSYLSLTPEQWKSHRSYSCQVTHEGSTVEKTVAPAECSGGGGSEGKSSGSGSESKSTEGKSSGSGSESKSTGGGGSEVQLVESGGGLVQPGGSLKLSCAASGFTFNTYAMNWVRQAPGKGLEWVARIRSKYNNYATYYADSVKDRFTISRDDSKNTAYLQMNNLKTEDTAVYYCVRHGNFGNSYVSWFAYWGQGTLVTVSAASTKGPSVFPLAPSSKSTSGGTAALGCLVKDYFPEPVTVSWNSGALTSGVHTFPAVLQSSGLYSLSSVVTVPSSSLGTQTYICNVNHKPSNTKVDKRVEPKSCDKTHTCPPCPAPEAAGGPSVFLFPPKPKDTLMISRTPEVTCVVVDVSHEDPEVKFNWYVDGVEVHNAKTKPREEQYNSTYRVVSVLTVLHQDWLNGKEYKCKVSNKALPAPIEKTISKAKGQPREPQVYTLPPSREEMTKNQVSLSCAVKGFYPSDIAVEWESNGQPENNYKTTPPVLDSDGSFFLVSKLTVDKSRWQQGNVFSCSVMHEALHNRFTQKSLSLSPG
notes: as for B1
Broadly, the EC50 (read off the curve) is the midpoint of the concentration-response curve. The low end stands for greater potency, the high end for weaker potency. Consider B3, for which the binding result in the assay with EGF3+4 and in the assay with EGF4+5 was “binds” in each case. Besides, in assay [1], the “EC50 (read off the curve)” value was roughly 2 nM.
